According to patent US20210107983A1 (Boehringer Ingelheim, published 2021):
Changes are numbered by the printed parent chain. Blank lines part the entries; values can stand above or below the binder they belong to.

Columns and labels:
Cyno B7H6-His [1] = target: T1, Cyno B7H6-His (cynomolgus monkey); test: ratio of SPR KDs cyno/human
T1 construct: also called CyB7H6; cyB7-H6
T1 chain: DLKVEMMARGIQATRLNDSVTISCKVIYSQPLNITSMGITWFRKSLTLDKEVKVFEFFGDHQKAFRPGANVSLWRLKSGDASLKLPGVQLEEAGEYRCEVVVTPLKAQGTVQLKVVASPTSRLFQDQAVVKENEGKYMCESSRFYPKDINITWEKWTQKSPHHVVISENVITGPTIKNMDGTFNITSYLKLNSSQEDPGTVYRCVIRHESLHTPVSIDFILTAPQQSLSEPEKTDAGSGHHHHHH
Method: (§1) About 700 RU of the B7H6/CD3 binding protein was captured on flow cell 2 of the Protein A/G surface for 60 s at a flow rate of 10 μL/min. The analytes HuB7H6, CyB7H6 and HuB7H1 were injected across both flow cells over captured B7H6/CD3 binding protein for 300 s at a flow rate of 30 μL/min with a dissociation of 1200 s. The concentrations of HuB7H6 and CyB7H6 were 0 nM, 6.25 nM, 12.5 nM, 25 nM, 50 nM and 100 nM. The concentrations of HuB7H1 were 0 nM and 1 μM. The surface was regenerated by injecting 10 mM glycine-HCl, pH 1.5 for 20 s at a flow rate of 30 μL/min across both flow cells.
(§2) The reference flow cell 1 (interactions with sensor surface) and blank (HBS-EP+ or 0 nM analyte) were subtracted from the raw data.
(§3) The B7H6/CD3 binding protein analyte was injected horizontally over the immobilized surface for 300 s at a flow rate of 30 μL/min with a dissociation of 600 s. The concentrations of the B7H6/CD3 binding protein used were 0 nM, 1.2 nM, 3.7 nM, 11.1 nM, 33.3 nM and 100 nM.

[2] = target: T2, trypsin inhibitor from Glycine max soybean (Glycine max (soybean)); test: SPR, 1 µM binder over immobilized trypsin inhibitor
T2 construct: unrelated negatively charged protein, amine-coupled to the chip
T2 sequence (P01070 25-205): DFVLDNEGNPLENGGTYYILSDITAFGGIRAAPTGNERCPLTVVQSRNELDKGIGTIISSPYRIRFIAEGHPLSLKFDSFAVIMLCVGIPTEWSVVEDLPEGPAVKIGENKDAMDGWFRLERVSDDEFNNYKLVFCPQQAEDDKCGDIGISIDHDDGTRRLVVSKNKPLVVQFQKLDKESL
Method: (§4) The experiment was performed on a Biacore® T200 SPR system (GE Healthcare Life Sciences). The dilution, surface preparation, and binding experiments were performed at 25° C. in 1×HBS-EP buffer prepared from 10×HBS-EP. The flow rate for both the immobilization protocol and binding experiment was at 5 μL/min.
(§5) To prepare the surface for the non-specific binding experiment, chicken egg white lysozyme and trypsin inhibitor from Glycine max soybean were coupled manually to a Biacore® series S CM5 sensor chip (GE Healthcare sciences) with the surface density of 3000-5000 RU using the amine coupling kit according to the manufacture instructions. Samples were prepared at 1 μM in 1×HBS-EP buffer. The samples were injected over activated surfaces with a 10 min association and 15 min dissociation. The data was collected using Biacore® T200 Control Software version 2.0.1 and analyzed using Biacore® T200 Evaluation Software version 3.0 (GE Healthcare Life Sciences).

Cyno B7H6-His [3] = target: T1, Cyno B7H6-His; test: SPR, binder captured on Protein A/G, B7H6 analyte
Method: (§6) To determine the affinity of human and cyno B7H6 and human B7H1 to B7H6/CD3 binding proteins, the experiment was performed on a Biacore™ 8K instrument (GE Healthcare Life Sciences). Briefly, the B7H6/CD3 binding protein was captured via Protein A/G. The running buffer for this experiment and all serial dilutions were prepared in HBS-EP+. The CM5 sensor chip was activated with an equal mixture of EDC/NHS across both flow cells for 420 s at a flow rate of 10 μL/min and immobilized with recombinant Protein A/G (50 μg/ml in 10 mM NaOAc, pH 4.5) across all flow cells for 420 s at a flow rate of 10 μL/min resulting in about 2500 RU of Protein A/G on the surface. The sensor chip was deactivated with 1M ethanolamine-HCl across all flow cells for 420 s at a flow rate of 10 μL/min.
as §1, §2

Human B7H1 = target: T3, Human B7H1 (human, UniProt Q9NZQ7 20-239); test: SPR, binder captured on Protein A/G, HuB7H1 analyte
T3 construct: also called HuB7H1; huB7-H1
T3 sequence (Q9NZQ7 other isoform, or with tags, fused parts or gaps limits assumed): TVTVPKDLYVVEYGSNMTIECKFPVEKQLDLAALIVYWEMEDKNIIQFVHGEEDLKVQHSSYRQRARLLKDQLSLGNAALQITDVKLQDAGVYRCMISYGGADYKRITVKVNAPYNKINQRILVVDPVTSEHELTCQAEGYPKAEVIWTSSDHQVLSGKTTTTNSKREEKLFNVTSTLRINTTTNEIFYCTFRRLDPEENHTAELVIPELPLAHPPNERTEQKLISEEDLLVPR
Method: as §6, §1, §2

Human CD3 E+G HuFc-6xHis = target: T4, Human CD3 E+G HuFc-6xHis (human); test: SPR, CD3E+G-hFc immobilized, binder analyte
T4 construct: also called HuCD3E+G-hFc; huCD3
T4 sequence (chain, as listed by the source limits assumed): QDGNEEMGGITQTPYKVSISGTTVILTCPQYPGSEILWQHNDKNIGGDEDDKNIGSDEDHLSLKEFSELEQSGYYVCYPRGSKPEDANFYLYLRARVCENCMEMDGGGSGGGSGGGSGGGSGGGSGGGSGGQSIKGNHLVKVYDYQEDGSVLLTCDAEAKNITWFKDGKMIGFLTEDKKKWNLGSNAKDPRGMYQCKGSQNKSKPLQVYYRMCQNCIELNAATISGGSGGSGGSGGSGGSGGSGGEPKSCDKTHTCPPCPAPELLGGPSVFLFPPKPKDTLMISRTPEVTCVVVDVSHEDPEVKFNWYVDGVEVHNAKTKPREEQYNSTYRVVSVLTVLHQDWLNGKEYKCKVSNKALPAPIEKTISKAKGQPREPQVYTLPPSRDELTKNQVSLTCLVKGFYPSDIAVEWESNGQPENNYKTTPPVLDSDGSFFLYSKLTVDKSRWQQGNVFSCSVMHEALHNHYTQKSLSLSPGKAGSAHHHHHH
Method: To determine the affinity of the B7H6/CD3 binding protein to human and cyno CD3E+G-hFc, the experiment was performed on a Bio-Rad ProteOn™ XPR36 instrument. Briefly, HuCD3E+G-hFc and CyCD3E+G were amine-coupled on a ProteOn™ GLM sensor chip (Bio-Rad) and the B7H6/CD3 binding protein was flowed over the immobilized surface. The running buffer for this experiment and all serial dilutions were prepared in HBS-EP+. The GLM sensor chip was normalized according to Bio-Rad's recommendations. The sensor chip was activated with an equal mixture of EDC/s-NHS in the horizontal direction for 300 s at a flow rate of 30 μL/min HuCD3E+G-hFc was immobilized in the vertical direction at 0.4 μg/mL, 0.2 μg/mL and 0.1 μg/mL in 10 mM acetate pH 4.5 to L1, L2 and L3, respectively, for 300 s at a flow rate of 30 μL/min resulting in about 100 RU of HuCD3E+G-hFc on L1, 40 RU of HuCD3E+G-hFc on L2 and 0 RU of HuCD3E+G-hFc on L3. CyCD3E+G-hFc was immobilized in the vertical direction at 0.4 μg/mL, 0.2 μg/mL and 0.1 μg/mL in 10 mM acetate pH 4.5 to L4, L5 and L6, respectively, for 300 s at a flow rate of 30 μL/min resulting in about 385 RU of […], 170 RU of CyCD3E+G-hFc on L5 and 50 RU of CyCD3E+G-hFc on L6. The sensor chip was deactivated with 1M ethanolamine-HCl in the horizontal direction for 300 s at a flow rate of 30 μL/min.
as §3
The interspot (interactions with sensor surface) and blank (HBS-EP+ or 0 nM analyte) were subtracted from the raw data.

[4] = target: T5, chicken egg white lysozyme (chicken, UniProt P00698 19-147); test: SPR, 1 µM binder over immobilized lysozyme
T5 construct: unrelated positively charged protein, amine-coupled to the chip; also called Lysozyme (positive)
T5 sequence (P00698 19-147): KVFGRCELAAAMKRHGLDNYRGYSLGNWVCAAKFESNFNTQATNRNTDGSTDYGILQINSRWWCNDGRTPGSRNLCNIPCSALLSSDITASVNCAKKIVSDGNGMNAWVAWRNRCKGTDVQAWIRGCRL
Method: as §4, §5

cy/hu B7-H6 (Cyno B7H6-His [1]): 2.3
Non-specific binding (RU) [2]: 42.6 RU
Kd (Cyno B7H6-His [3]): 7.2 nM
binding result (Human B7H1): no binding (tested: 1 µM)
Kd (Human CD3 E+G HuFc-6xHis): 3.7 nM
Non-specific binding (RU) [4]: 8.2 RU
B1: B7H6#16/CD3#1 (bispecific antibody, human IgG1, kappa, lambda, L234A L235A)
chain 1: DIQMTQSPSSLSASVGDRVTITCKASQNVGKYVAWYQQKPGKAPKSLIYSASNRYDGVPSRFSGSGSGTDFTLTISSLQPEDFTTYYCQQYISYPLTFGAGTKLEIKRTVAAPSVFIFPPSDEQLKSGTASVVCLLNNFYPREAKVQWKVDNALQSGNSQESVTEQDSKDSTYSLSSTLTLSKADYEKHKVYACEVTHQGLSSPVTKSFNRGECGGGGSEGKSSGSGSESKSTEGKSSGSGSESKSTGGGGSQVQLVQSGAEVKKPGASVKVSCKASGYTFTSYWMNWMRQAPGQGLEWMGGIYLSGESTDYNEKFKGRVTMTVDTSTSTVYMELSSLRSEDTAVYYCTRRGDYFGDFWGQGTLVTVSSASTKGPSVFPLAPSSKSTSGGTAALGCLVKDYFPEPVTVSWNSGALTSGVHTFPAVLQSSGLYSLSSVVTVPSSSLGTQTYICNVNHKPSNTKVDKRVEPKSCDKTHTCPPCPAPEAAGGPSVFLFPPKPKDTLMISRTPEVTCVVVDVSHEDPEVKFNWYVDGVEVHNAKTKPREEQYNSTYRVVSVLTVLHQDWLNGKEYKCKVSNKALPAPIEKTISKAKGQPREPQVYTLPPSREEMTKNQVSLWCLVKGFYPSDIAVEWESNGQPENNYKTTPPVLDSDGSFFLYSKLTVDKSRWQQGNVFSCSVMHEALHNHYTQKSLSLSPG
chain 2: EAVVTQEPSLTVSPGGTVTLTCRSSTGAVTTSNYANWVQEKPGQLPRGLIGGTNKRAPWVPARFSGSLLGGKAALTLSGAQPEDEAEYFCALWYSNLWVFGGGTKLTVLGQPKAAPSVTLFPPSSEELQANKATLVCLISDFYPGAVKVAWKADGSPVNTGVETTTPSKQSNNKYAASSYLSLTPEQWKSHRSYSCQVTHEGSTVEKTVAPAECSGGGGSEGKSSGSGSESKSTEGKSSGSGSESKSTGGGGSEVQLVESGGGLVQPGGSLKLSCAASGFTFNTYAMNWVRQAPGKGLEWVARIRSKYNNYATYYADSVKDRFTISRDDSKNTAYLQMNNLKTEDTAVYYCVRHGNFGNSYVSWFAYWGQGTLVTVSAASTKGPSVFPLAPSSKSTSGGTAALGCLVKDYFPEPVTVSWNSGALTSGVHTFPAVLQSSGLYSLSSVVTVPSSSLGTQTYICNVNHKPSNTKVDKRVEPKSCDKTHTCPPCPAPEAAGGPSVFLFPPKPKDTLMISRTPEVTCVVVDVSHEDPEVKFNWYVDGVEVHNAKTKPREEQYNSTYRVVSVLTVLHQDWLNGKEYKCKVSNKALPAPIEKTISKAKGQPREPQVYTLPPSREEMTKNQVSLSCAVKGFYPSDIAVEWESNGQPENNYKTTPPVLDSDGSFFLVSKLTVDKSRWQQGNVFSCSVMHEALHNRFTQKSLSLSPG
notes: scFab-Fc heterodimer, one B7H6 chain and one CD3 chain

cy/hu B7-H6 (Cyno B7H6-His [1]): 0.4
Non-specific binding (RU) [2]: 42 RU
Kd (Cyno B7H6-His [3]): 1.4 nM
binding result (Human B7H1): no binding (tested: 1 µM)
Kd (Human CD3 E+G HuFc-6xHis): 4.4 nM
Non-specific binding (RU) [4]: 8.1 RU
B2: B7H6#21/CD3#1 (bispecific antibody, human IgG1, kappa, lambda, L234A L235A)
chain 1: B1 chain 1 with T84A, Y87F, R290K, M300I, R319K
chain 2: B1 chain 2
notes: as for B1

cy/hu B7-H6 (Cyno B7H6-His [1]): 5.9
Non-specific binding (RU) [2]: 32.7 RU
Kd (Cyno B7H6-His [3]): 0.6 nM
binding result (Human B7H1): no binding (tested: 1 µM)
Kd (Human CD3 E+G HuFc-6xHis): 4.2 nM
Non-specific binding (RU) [4]: 8.1 RU
B3: B7H6#14/CD3#1 (bispecific antibody, human IgG1, kappa, lambda, L234A L235A)
chain 1: B1 chain 1 with T84A, Y87F, S283N, R290K, M300I, S306N, E308D, R319K
chain 2: B1 chain 2
notes: as for B1

cy/hu B7-H6 (Cyno B7H6-His [1]): 1
Non-specific binding (RU) [2]: 39.5 RU
Kd (Cyno B7H6-His [3]): 1.4 nM
binding result (Human B7H1): no binding (tested: 1 µM)
Kd (Human CD3 E+G HuFc-6xHis): 5.1 nM
Non-specific binding (RU) [4]: 7.8 RU
B4: B7H6#22/CD3#1 (bispecific antibody, human IgG1, kappa, lambda, L234A L235A)
chain 1: B1 chain 1 with G57A, T84A, Y87F, R290K, M300I, E308D, R319K
chain 2: B1 chain 2
notes: as for B1

cy/hu B7-H6 (Cyno B7H6-His [1]): 3.1
Non-specific binding (RU) [2]: 40.3 RU
Kd (Cyno B7H6-His [3]): 5.1 nM
binding result (Human B7H1): no binding (tested: 1 µM)
Kd (Human CD3 E+G HuFc-6xHis): 4 nM
Non-specific binding (RU) [4]: 8.2 RU
B5: B7H6#19/CD3#1 (bispecific antibody, human IgG1, kappa, lambda, L234A L235A)
chain 1: B1 chain 1 with M289V, R290K, R319K, V320A
chain 2: B1 chain 2
notes: as for B1
